Biological target: T1, recombinant Kap121p (yeast, UniProt P32337 1-1089)
T1 sequence (looked up): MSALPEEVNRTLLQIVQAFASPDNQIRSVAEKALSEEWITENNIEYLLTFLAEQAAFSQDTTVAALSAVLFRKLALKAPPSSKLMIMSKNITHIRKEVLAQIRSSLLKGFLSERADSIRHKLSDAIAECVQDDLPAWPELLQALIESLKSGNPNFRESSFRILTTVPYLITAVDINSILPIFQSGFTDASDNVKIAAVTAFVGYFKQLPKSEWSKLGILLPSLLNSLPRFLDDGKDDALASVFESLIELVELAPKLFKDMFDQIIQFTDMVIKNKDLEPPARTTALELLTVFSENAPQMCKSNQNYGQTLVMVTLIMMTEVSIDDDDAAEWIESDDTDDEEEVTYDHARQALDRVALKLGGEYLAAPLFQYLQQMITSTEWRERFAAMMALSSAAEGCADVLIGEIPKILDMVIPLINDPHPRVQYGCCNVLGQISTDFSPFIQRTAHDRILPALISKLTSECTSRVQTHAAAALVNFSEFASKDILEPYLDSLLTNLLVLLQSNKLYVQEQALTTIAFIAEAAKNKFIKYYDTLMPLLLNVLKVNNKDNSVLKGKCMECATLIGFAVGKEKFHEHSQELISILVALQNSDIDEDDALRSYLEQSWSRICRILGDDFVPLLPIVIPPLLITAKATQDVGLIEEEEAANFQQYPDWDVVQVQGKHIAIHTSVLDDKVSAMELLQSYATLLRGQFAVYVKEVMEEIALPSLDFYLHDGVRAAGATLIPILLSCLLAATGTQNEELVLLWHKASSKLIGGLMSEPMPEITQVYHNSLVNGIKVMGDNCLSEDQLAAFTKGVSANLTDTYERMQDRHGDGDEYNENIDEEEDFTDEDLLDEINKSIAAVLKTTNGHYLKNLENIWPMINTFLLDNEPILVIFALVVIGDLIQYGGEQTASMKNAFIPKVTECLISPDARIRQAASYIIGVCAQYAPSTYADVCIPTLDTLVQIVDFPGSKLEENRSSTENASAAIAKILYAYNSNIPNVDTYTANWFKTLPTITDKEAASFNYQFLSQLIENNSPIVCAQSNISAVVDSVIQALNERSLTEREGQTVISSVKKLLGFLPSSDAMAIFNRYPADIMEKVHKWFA
Assay: pull-down

Q: Does RNAEFKVSKNSTSFKNPRRLEIKDGRSLFLRNRGKIHSGVLSSIESDL (domain or fragment, yeast, UniProt Q03790 401-448, looked up) [GST-401–448] bind?
A: binds
